This note sets out measurements from patent publication US20260242730A1 (POINTLOMA BIOSCIENCES, published 2026).

For experiment [1], the target named is T1, recombinant human TROP2 protein (human, UniProt P09758 27-274).
T1 chain: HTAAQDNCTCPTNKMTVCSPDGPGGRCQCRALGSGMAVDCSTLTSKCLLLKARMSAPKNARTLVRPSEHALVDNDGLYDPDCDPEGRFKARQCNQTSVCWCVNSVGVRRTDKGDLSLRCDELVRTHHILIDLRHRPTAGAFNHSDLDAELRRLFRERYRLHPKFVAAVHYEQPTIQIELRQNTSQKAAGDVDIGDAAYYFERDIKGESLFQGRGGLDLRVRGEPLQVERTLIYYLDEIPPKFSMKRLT
The experiment in a line: binding of TROP2 protein to binder-expressing γδ T cells.

Experiment [2] addresses T2, human PD-L1 (antigen of panning and phage ELISA) (human, UniProt Q9NZQ7 19-238, biotinylated (panning antigen)).
T2 construct: also called biotinylated human PD-L1
The experiment in a line: phage ELISA of clones panned on biotinylated human PD-L1. The text has this:
The animal boosted four times every two weeks. After confirming the serum titer against PD-L1, PBMC was isolated and used for phage display library construction. Anti-PD-L1 binders were isolated with the immunized phage display library using liquid phase Biopanning on biotinylated human PD-L1. Stringency was increased during successive rounds by decreasing antigen concentration, increasing the number and duration of washes, and/or changing the duration of selections. The panning process was repeated three to four times until the output phage enrichment was identified. The eluted phages were diluted and spread on a petri dish to grow single colonies. Individual phage clones were selected and amplified. 384 single colonies were selected and tested for specificity by ELISA. […] After sequencing the positive clones, three unique sequences were obtained based on amino acid sequences.

Experiment [3] deals with T3, recombinant human TROP2 protein (human, UniProt P09758 27-274).
T3 sequence (looked up): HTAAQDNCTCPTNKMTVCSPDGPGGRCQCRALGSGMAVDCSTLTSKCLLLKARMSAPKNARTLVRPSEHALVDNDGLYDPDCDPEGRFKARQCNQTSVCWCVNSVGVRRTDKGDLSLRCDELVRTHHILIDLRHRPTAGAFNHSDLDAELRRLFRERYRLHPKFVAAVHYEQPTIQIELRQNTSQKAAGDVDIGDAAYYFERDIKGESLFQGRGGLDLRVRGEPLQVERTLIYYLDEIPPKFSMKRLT
Briefly: flow cytometry, titration of TROP2 protein on CAR γδ T cells. A general note: A flow cytometer gives signals particle by particle.

T2 sequence (Q9NZQ7 19-238 limits assumed): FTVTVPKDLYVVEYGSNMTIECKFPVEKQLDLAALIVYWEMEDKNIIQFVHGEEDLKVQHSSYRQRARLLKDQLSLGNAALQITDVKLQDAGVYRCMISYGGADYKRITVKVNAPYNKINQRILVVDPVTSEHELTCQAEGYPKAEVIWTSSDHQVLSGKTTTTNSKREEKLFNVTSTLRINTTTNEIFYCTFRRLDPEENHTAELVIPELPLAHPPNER

B1: TROP2 CAR with anti-TROP2 VHH #TP12, on γδ T cells (other)
chain: QVQLVESGGGLVQPGGSLRLSCAASRFTLDYYAIGWIRQAPGKEREGVSCISSSGGSTNYADSVKGRFTISRDNAKNTVYLQMNSLKPEDTGVYYCAATTYACSGYVPRAYEYDYWGQGTQVTVSSTTTPAPRPPTPAPTIASQPLSLRPEACRPAAGGAVHTRGLDFACDIYIWAPLAGTCGVLLLSLVITLYCKRGRKKLLYIFKQPFMRPVQTTQEEDGCSCRFPEEEEGGCELRVKFSRSADAPAYQQGQNQLYNELNLGRREEYDVLDKRRGRDPEMGGKPRRKNPQEGLYNELQKDKMAEAYSEIGMKGERRRGKGHDGLYQGLSTATKDTYDALHMQALPPR
The term EC50 denotes the concentration that produces a half-maximal response. As for B1, the EC50 in experiment [1] turned out to be 14.4 nM.

B2: anti-PD-L1 #PD2 VHH (VHH)
VHH: DVQLQESGGGLVEPGGSLRLSCAASGFTFNHYGMSWVRQAPGKGLQWVSTLFTTGSSQYANSVKGRFTISRDAAENTLYLHMNNLKPEDTAVYFCAKGVGLGSERGPGTQVTVSS
On to B2, for which the binding result in experiment [2] is recorded as “binds”.

B3: TROP2 CAR with anti-TROP2 #PL02 scFv (VL-linker-VH) adopted from monoclonal antibody hRS7, on γδ T cells (other, not shown: small tags and cut ends)
chain: DIQLTQSPSSLSASVGDRVSITCKASQDVSIAVAWYQQKPGKAPKLLIYSASYRYTGVPDRFSGSGSGTDFTLTISSLQPEDFAVYYCQQHYITPLTFGAGTKVEIKGGGGSGGGGSGGGGSQVQLQQSGSELKKPGASVKVSCKASGYTFTNYGMNWVKQAPGQGLKWMGWINTYTGEPTYTDDFKGRFAFSLDTSVSTAYLQISSLKADDTAVYFCARGGFGSSYWYFDVWGQGSLVTVSS
notes: CAR on γδ T cells
Take B3: the binding result in experiment [3] is listed as “binds”. In experiment [1], the EC50 worked out at 6.81 nM.

B4: anti-PD-L1 #PD3 VHH (VHH)
VHH: DVQLQESGGGLVQAGDSLGLSCAASGRAFSLFEMAWYRQAPGKAREFVAAIMWRGGHTVYADSVKGRSTISSDNTKNTVYLQMNSLKPEDTAIYYCRGKVVGSDYWGQGTQVTVSS
In the case of B4, the binding result in experiment [2] was “binds”.

B5: TROP2 CAR with anti-TROP2 VHH #TP9, on γδ T cells (other)
chain: QVQLVESGGGLVQPGGSLRLSCAASGFSLDYWAIAWFRQAPGKEREGVSCSGSRGSTHYADSVKGRFTISRDNAKNTVYLQMNSLKPEDAGVYYCAVGSTLYSLTPYEYDYWGQGTQVTVSSTTTPAPRPPTPAPTIASQPLSLRPEACRPAAGGAVHTRGLDFACDIYIWAPLAGTCGVLLLSLVITLYCKRGRKKLLYIFKQPFMRPVQTTQEEDGCSCRFPEEEEGGCELRVKFSRSADAPAYQQGQNQLYNELNLGRREEYDVLDKRRGRDPEMGGKPRRKNPQEGLYNELQKDKMAEAYSEIGMKGERRRGKGHDGLYQGLSTATKDTYDALHMQALPPR
In the case of B5, the EC50 in experiment [1] is 18.1 nM.

B6: anti-PD-L1 #PD1 VHH (VHH)
VHH: DVQLQESGGGLVQAGGSLRLSCAASESIASINVMGWYRQAPGKQRELVAIITNRGTTSYPDSVKGRFTISRDNGKNTVYLQMNTLKPEDTAVYYCNAPWTDGINYWGKGTQVTVSS
Regarding B6, in experiment [2], the binding result is on record as “binds”.

B7: TROP2 CAR with anti-TROP2 VHH #TP2, on γδ T cells (other)
chain: EVQLVESGGGLAQPGGSLRLSCAASGFTFSTYAMSWARQAPGKGLEWVSGIYADGSGTYYADSVKGRFTISRDNAKNTLYLQMNSLKPEDTALYYCAQGYSDYDRRLGEYDYWGQGTQVTVSSTTTPAPRPPTPAPTIASQPLSLRPEACRPAAGGAVHTRGLDFACDIYIWAPLAGTCGVLLLSLVITLYCKRGRKKLLYIFKQPFMRPVQTTQEEDGCSCRFPEEEEGGCELRVKFSRSADAPAYQQGQNQLYNELNLGRREEYDVLDKRRGRDPEMGGKPRRKNPQEGLYNELQKDKMAEAYSEIGMKGERRRGKGHDGLYQGLSTATKDTYDALHMQALPPR
B7: in experiment [1], the EC50 worked out at 3.43 nM.
